Here are results for one molecule from patent publication US20080050387A1 (published 2008).

Assay [1] has as its target T1, testicular receptor 4 (TR4) (Homo sapiens (Human), UniProt P49116 1-596, limits assumed).
T1 construct: hSos fusion (pSos-TR4) in yeast; also called pSos-TR4
T1 sequence: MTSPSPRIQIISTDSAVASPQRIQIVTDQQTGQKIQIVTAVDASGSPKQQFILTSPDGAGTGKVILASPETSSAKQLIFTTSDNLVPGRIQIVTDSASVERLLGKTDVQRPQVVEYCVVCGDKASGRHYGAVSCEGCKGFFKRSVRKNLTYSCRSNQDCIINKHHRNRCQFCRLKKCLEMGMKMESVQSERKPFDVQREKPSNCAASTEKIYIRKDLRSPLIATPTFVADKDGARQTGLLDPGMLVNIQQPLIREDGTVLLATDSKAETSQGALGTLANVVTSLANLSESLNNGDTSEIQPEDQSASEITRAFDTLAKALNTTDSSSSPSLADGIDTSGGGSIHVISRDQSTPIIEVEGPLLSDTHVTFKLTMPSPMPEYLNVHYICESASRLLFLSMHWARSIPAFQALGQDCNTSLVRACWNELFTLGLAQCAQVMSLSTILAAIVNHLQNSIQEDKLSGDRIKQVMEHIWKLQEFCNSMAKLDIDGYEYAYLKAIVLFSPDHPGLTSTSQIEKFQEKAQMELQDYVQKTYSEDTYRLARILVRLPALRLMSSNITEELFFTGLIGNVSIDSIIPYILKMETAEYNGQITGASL
Description: CytoTrap Sos yeast two-hybrid, growth of cdc25H on SD/Gal(-LU) at 37° C.
Description: (§1) The bait and library constructs were co-transformed into yeast strain cdc25H. […] Only the clones that grow out on SD/Gal (−LU) plates but not on SD/Glu (−LU) plates at 37° C. are interaction positive ones.

Assay [2] addresses T2, ARA70 (UniProt Q13772 1-614, limits assumed).
T2 construct: also called pSos-ARA70; pSos-APA70
T2 sequence (looked up): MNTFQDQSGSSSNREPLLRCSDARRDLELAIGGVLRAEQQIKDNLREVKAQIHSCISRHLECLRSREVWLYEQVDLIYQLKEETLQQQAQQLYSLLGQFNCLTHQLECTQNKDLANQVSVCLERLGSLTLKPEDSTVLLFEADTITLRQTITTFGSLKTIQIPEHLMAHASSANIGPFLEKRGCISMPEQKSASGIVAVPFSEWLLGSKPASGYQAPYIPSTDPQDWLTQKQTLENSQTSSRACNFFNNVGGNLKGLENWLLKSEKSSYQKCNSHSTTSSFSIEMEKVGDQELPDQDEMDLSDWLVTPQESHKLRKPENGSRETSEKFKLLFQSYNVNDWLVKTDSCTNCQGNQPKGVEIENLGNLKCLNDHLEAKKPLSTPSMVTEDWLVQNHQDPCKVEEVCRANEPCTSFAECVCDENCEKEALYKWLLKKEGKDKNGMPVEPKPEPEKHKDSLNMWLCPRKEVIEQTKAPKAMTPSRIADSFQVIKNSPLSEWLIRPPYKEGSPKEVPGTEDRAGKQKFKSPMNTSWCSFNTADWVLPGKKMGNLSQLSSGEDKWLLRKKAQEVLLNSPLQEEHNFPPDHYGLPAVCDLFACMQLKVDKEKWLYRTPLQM
Described as above.
Description: as §1

B1: ARA67 clone of the CytoTrap screen, amino acids 20-585 of PAT1 (pMyr-ARA67) (other)
chain: AVVDNYIRSRRDIRSLPENIQFDVYYKLYQQGRLCQLGSEFCELEVFAKVLRALDKRHLLHHCFQALMDHGVKVASVLAYSFSRRCSYIAESDAAVKEKAIQVGFVLGGFLSDAGWYSDAEKVFLSCLQLCTLHDEMLHWFRAVECCVRLLHVRNGNCKYHLGEETFKLAQTYMDKLSKHGQQANKAALYGELCALLFAKSHYDEAYKWCIEAMKEITAGLPVKVVVDVLRQASKACVVKREFKKAEQLIKHAVYLARDHFGSKHPKYSDTLLDYGFYLLNVDNICQSVAIYQAALDIRQSVFGGKNIHVATAHEDLAYSSYVHQYSSGKFDNALFHAERAIGIITHILPEDHLLLASSKRVKALILEEIAIDCHNKETEQRLLQEAHDLHLSSLQLAKKAFGEFNVQTAKHYGNLGRLYQSMRKFKEAEEMHIKAIQIKEQLLGQEDYEVALSVGHLASLYNYDMNQYENAEKLYLRSIAIGKKLFGEGYSGLEYDYRGLIKLYNSIGNYEKVFEYHNVLSNWNRLRDRQYSVTDALEDVSTSPQSTEEVVQSFLISQNVEGPSC
notes: The clone matched the DNA encoding aa 20-585 of PAT1 at 99.6% identity; also called pMyr-ARA67/PAT1
B1: the binding result in assay [1] and in assay [2] was “no binding” each time.
